In article PMC12012487:
“And” between values parts separate entries of the source, which are not always exact repeats. Equal values may be shown once.

Columns and labels:
[1] = target: engineered strepII-tagged H77c-derived soluble native-like E1E2 (hepatitis C virus, strain H77c); test: mass photometry
[2] = target: engineered strepII-tagged H77c-derived soluble native-like E1E2 (Hepatitis C virus genotype 1a, isolate H77 (H77c)); test: mass photometry

| Substance | stoichiometry N [1] | relative abundance of the 1:1 E1E2:Ab complex [2] [%] | relative abundance of the 2:1 E1E2:Ab complex [2] [%] | stoichiometry N [2] | also measured |
| --- | --- | --- | --- | --- | --- |
| AR4A/AR3C IgG3C- hinge bispecific antibody (CrossMab) | 1 E1E2:Ab | – | – | – | – |
| AR3C monoclonal antibody | – | 60 | 40 | 1 E1E2:Ab and 2 E1E2:Ab | – |
| AR4A monoclonal antibody | – | 60 | 40 | 1 E1E2:Ab and 2 E1E2:Ab | – |
| AR4A/AR3C CamX6 hinge bispecific antibody (CrossMab) | 1 E1E2:Ab | – | – | – | – |
| AR4A/AR3C IgG1 hinge bispecific antibody | 2 E1E2:Ab | – | – | – | relative abundance of the 2:1 E1E2:Ab complex [1]: 67%; stoichiometry N (E1E2:Ab (2:2 complex)) [1]: 1; stoichiometry N (E1E2:Ab (3:2 complex)) [1]: 1.5 |
